# How the values were obtained:
# [1] = biological target: T1, CS1 ECD-Fcγ3 fusion protein (human, UniProt Q9NQ25 23-226); test: direct binding ELISA, plate coated with 1 μg/ml soluble human CS1-human Fcγ3 fusion protein
# T1 construct: also called CS1-γ3; CS1-Fc-γ3; not shown: constant region of human IgG3 (human Fc-γ3) from the vector
# [2] = biological target: T2, hu25/mu75 chimeric CS1-Fc (human/mouse chimera; human, UniProt P01857-1 99-330 = IgG part, limits assumed); test: sandwich ELISA, captured chimeric CS1-Fc
# T2 construct: domain: Fc
# T2 sequence (P01857 other isoform, or with tags, fused parts or gaps mutant limits assumed): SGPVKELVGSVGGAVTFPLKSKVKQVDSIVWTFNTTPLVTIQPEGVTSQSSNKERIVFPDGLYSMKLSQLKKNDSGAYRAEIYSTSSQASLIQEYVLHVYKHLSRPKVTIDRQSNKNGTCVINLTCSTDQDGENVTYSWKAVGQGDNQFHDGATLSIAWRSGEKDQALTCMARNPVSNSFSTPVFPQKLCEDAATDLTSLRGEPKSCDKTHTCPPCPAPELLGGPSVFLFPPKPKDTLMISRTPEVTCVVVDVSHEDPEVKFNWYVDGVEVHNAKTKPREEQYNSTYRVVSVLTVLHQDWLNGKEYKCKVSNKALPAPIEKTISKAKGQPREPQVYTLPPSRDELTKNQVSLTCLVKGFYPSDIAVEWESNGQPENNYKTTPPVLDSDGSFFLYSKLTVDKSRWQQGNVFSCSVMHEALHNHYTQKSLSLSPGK
# [3] = biological target: T3, mu25/hu75 chimeric CS1-Fc (human/mouse chimera; human, UniProt P01857-1 99-330 = IgG part, limits assumed); test: sandwich ELISA, captured chimeric CS1-Fc
# T3 construct: domain: Fc
# T3 sequence (P01857 other isoform, or with tags, fused parts or gaps mutant limits assumed): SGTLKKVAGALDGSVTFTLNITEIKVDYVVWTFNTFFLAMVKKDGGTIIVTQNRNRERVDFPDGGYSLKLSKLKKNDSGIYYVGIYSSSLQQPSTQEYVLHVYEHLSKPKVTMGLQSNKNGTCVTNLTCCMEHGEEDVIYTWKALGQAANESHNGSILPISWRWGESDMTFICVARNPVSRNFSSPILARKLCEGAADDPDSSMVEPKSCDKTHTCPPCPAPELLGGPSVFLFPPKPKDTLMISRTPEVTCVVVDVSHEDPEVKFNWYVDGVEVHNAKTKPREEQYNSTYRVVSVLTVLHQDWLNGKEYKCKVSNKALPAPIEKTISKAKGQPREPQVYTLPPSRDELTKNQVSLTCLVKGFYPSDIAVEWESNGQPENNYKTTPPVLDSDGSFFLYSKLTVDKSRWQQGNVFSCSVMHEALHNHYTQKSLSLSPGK
# CS1 ECD-myc-GPI [4] = biological target: T4, CS1 ECD-myc-GPI (human, UniProt Q9NQ25 23-226, GPI linkage at the C-terminus); test: cell-based or functional assay
# [5] = biological target: human CS1-Fc fusion protein (Biacore analyte) (human) (UniProt Q9NQ25); test: SPR (BIAcore 2000), antibody immobilised, CS1-Fc as analyte, bivalent analyte model
# [6] = biological target: T5, human CS1-Fc fusion protein (Biacore analyte) (human, UniProt Q9NQ25 23-226, limits assumed); test: SPR (BIAcore 2000), antibody immobilised, CS1-Fc as analyte
# T5 construct: kept apart; also called CS-Fc; not shown: Fc part
# [7] = biological target: T6, full-length wild-type human CS1 (human, UniProt Q9NQ25 23-335); test: FACS on K562 and Daudi cells
# T6 construct: Native CS1 on K562 and Daudi cells, myeloma and B-cell lines, tonsil/synovial and patient plasma cells; also called SLAMF7; 19A
# CS1 ECD-myc-GPI [8] = biological target: T4, CS1 ECD-myc-GPI; test: FACS on NSO-CS1 transfectants
# [9] = biological target: T1, CS1 ECD-Fcγ3 fusion protein; test: ELISA on CS1-γ3 fusion protein
Binder,EC50 [1] [µg/mL],binding result [2],binding result [3],also measured
"Luc63 (antibody, V domains shown, mouse anti-human CS1 monoclonal, IgG2a; also called MuLuc63; muLuc63) VH: EVKLLESGGGLVQPGGSLKLSCAASGFDFSRYWMSWVRQAPGKGLEWIGEINPDSSTINYTPSLKDKFIISRDNAKNTLYLQMSKVRSEDTALYYCARPDGNYWYFDVWGAGTTVTVSS VL: DIVMTQSHKFMSTSVGDRVSITCKASQDVGIAVAWYQQKPGQSPKLLIYWASTRHTGVPDRFTGSGSGTDFTLTISNVQSEDLADYFCQQYSSYPYTFGGGTKLEIK",0.0661,–,–,–
"Luc69 (antibody, V domains shown, mouse anti-human CS1 monoclonal) VH: QVQLQQSGPELVKPGASVKISCKASGYAFSNSWMNWVKQRPGQGLEWIGRIYPGDGDTKSNGKFKGKATLTADKSSRAAYMQLSSLTSVDSAVYFCARSTMIMTGAMDYWGQGTSVTVSS VL: DIVMTQSHKFMSTSVGDRVIITCKASQDVSTAVAWYQQKPGQSPKLLIYSASFRYTGVPDRFTGSGSGTDFTFTVSSVQAEDLAVYYCQQHYSTPPYTFGGGTKLEIK",–,no binding (tested: 2 μg/ml),no binding (tested: 2 μg/ml),–
"HuLuc63 (antibody, human IgG1, V domains shown, human IgG1/κ, transiently expressed in 293-H cells; also called humanized Luc63) VH: EVQLVESGGGLVQPGGSLRLSCAASGFDFSRYWMSWVRQAPGKGLEWIGEINPDSSTINYAPSLKDKFIISRDNAKNSLYLQMNSLRAEDTAVYYCARPDGNYWYFDVWGQGTLVTVSS VL: DIQMTQSPSSLSASVGDRVTITCKASQDVGIAVAWYQQKPGKVPKLLIYWASTRHTGVPDRFSGSGSGTDFTLTISSLQPEDVATYYCQQYSSYPYTFGQGTKVEIK",0.0701,–,–,–
"Luc90 (antibody, V domains shown, mouse anti-human CS1 monoclonal, IgG2b; also called Luc90.H1; Luc90H1) VH: QVQLQQPGAELVRPGASVKLSCKASGYSFTTYWMNWVKQRPGQGLEWIGMIHPSDSETRLNQKFKDKATLTVDKSSSTAYMQLSSPTSEDSAVYYCARSTMIATRAMDYWGQGTSVTVSS VL: DIVMTQSQKSMSTSVGDRVSITCKASQDVITGVAWYQQKPGQSPKLLIYSASYRYTGVPDRFTGSGSGTDFTFTISNVQAEDLAVYYCQQHYSTPLTFGAGTKLELK",–,no binding (tested: 2 μg/ml),no binding (tested: 2 μg/ml),"細胞傷害性(%) (ADCC, LDH release, PBMC effectors 20:1) (CS1 ECD-myc-GPI [4]): ~50%; fold higher binding affinity than Luc34.1 [5]: 28 fold; fold higher binding affinity than Luc63.2 [5]: 5.5 fold"
"Luc34 (antibody, V domains shown, mouse anti-human CS1 monoclonal; also called Luc34.1) VH: QVQLQQSGAELARPGASVKLSCKASGYTFTSYWMQWVKQRPGQGLEWIGAIYPGDGDTRYTQKFKGKATLTADKSSSTAYMQLSSLASEDSAVYYCARGKVYYGSNPFAYWGQGTLVTVSA VL: DIQMTQSSSYLSVSLGGRVTITCKASDHINNWLAWYQQKPGNAPRLLISGATSLETGVPSRFSGSGSGKDYTLSITSLQTEDVATYYCQQYWSTPWTFGGGTKLEIK",–,no binding (tested: 2 μg/ml),no binding (tested: 2 μg/ml),binding result [6]: binds; binding result [7]: binds; binding result (CS1 ECD-myc-GPI [8]): binds; binding result [9]: binds
